From patent publication US20210198377A1 (XDCEXPLORER SHANGHAI, published 2021)
Positions count from the first letter of the chain named.

T1: mouse TPBG (full length, on cells) (mouse, UniProt Q9Z0L0 32-426)
T1 construct: whole, on cells; On transfected CHO-K1 cells; also called mTPBG; CHO-K1-mTPBG
T1 sequence (looked up): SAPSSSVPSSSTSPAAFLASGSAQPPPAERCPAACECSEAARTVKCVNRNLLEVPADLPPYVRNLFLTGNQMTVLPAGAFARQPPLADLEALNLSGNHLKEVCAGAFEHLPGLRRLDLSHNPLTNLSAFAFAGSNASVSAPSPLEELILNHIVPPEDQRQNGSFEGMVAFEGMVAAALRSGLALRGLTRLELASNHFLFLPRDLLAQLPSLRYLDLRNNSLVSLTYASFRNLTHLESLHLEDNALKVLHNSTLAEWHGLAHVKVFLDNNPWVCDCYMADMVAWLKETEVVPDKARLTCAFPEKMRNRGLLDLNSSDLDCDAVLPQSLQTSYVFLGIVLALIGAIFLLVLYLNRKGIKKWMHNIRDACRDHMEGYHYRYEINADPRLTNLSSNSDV

T2: human TPBG-hFc (human, UniProt Q13641 32-355)
T2 construct: also called immunogen A; hFc tagged TPBG protein; not shown: The human IgG Fc fragment of the pCpC vector (Invitrogen V044-50) and any linker to it
T2 sequence: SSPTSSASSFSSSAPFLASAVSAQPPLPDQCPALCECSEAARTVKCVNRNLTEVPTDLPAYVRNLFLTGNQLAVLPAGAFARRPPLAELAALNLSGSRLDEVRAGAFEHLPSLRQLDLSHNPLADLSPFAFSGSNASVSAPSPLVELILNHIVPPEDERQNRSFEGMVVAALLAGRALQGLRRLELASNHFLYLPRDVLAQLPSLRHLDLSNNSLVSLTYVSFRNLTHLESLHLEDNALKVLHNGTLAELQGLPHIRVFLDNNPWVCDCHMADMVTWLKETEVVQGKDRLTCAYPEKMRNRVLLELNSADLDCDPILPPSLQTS

B1: 28D4E6A9 (antibody, V domains shown)
VH: DVQLVESGGGLVRPGGSLKLSCAASGFTFSNYVMSWARQSPEKRLEWVAEISTGGSHTYYSDTVTGRFTISRDNAKKALYLEMSSLRSEDTAIYYCIMFYYGSSYSMDYWGQGTSVTVSS
VL: DIQMTQSTSSLSASLGDRITISCRASQDIRNYLNWYQQKPDGTVKLLIYHTSRLHSGVPSRFSGSGSGTDYSLTISNLEQEDIATYFCQQGDTLPLTFGAGTRLELK
notes: Mouse hybridoma antibody purified from culture supernatant; also called TPBG antibody; lead antibody
B2: 99E12C7H1 (antibody, V domains shown)
VH: QIQLVQSGPELKKPGETVKISCKPSGYTFTAYGLSWVKQAPGQGFQWMGWINTYSGVPTYTDDFKGRFAFSLETSAGTASLQITNLKNEDTATYFCARSSIPPFEYWGPGTTLTVSS
VL: SFVMTQSPKFLLVSVGDRVTITCKASQSVSNDVAWYQQKPGQPPRVLIYFASNRYTGVPDRFTGSGYGTDFTFTISTVQAEDLALYFCQQDYSSPWTFGGGTKLEIK
notes: as for B1
B3: 106D5G3D10 (antibody, V domains shown)
VH: EVQLVESGGGLVKPGGSLKLSCAASGFTFSDYGMHWVRQAPEKGLEWVGYISSGTYVVYYADTVKGRFTISRDNAKNTLFLQMTSLRSEDTAIYYCSTYGSNPFDYWGQGTTLTVSS
VL: QLVLTQSPAIMSASPGEKVTITCSATSSVSSMHWFQQKPVTSPKLWIYSTSNLASGVPTRFSGSGSGTSYSLTISRMEAEDAATYYCQQRSGYPPIFTFGSGTKLEIK
notes: as for B1
B4: 12B12C7C3 (antibody, V domains shown)
VH: DVQLVESGGGLVQPGGSRKLSCAASGFTFSNFGMHWVRQAPEKGLEWVAYISSGSTSFYYADTVKGRFTISRDNPKNTLFLQMTSLRSEDTAMYYCSRTNSLLRGFFDAWGAGTTVTVSS
VL: DIVLTQSPASLAVSLGQRATISCRASQSVSSSSYTYLHWYQQKPGQPPKLLIKSASNLESGVPARFSGTGSGTDFTLNIHPVEEEDTATYYCQHSWEIPLTFGAGTKLELK
notes: as for B1
B5: 37H9C5G2 (antibody, V domains shown)
VH: QVQLQQSDAELVRPGASVKMSCKVSGYTFTDHTIHWMKQRPEQGLEWIGYIYPRDGSGTYNEKFKGKATLTADKSSSTAYMQLNSLTSEDSAVYFCARDGSSHYWYFDVWGTGTTVTVSS
VL: DIQMTQSPASLSASVGETVTITCRASEIIYNYLAWYQQKQGKSPQLLVYNAKTLAEGVPSRFSGSYSGTQFSLNINSLQSEDFGIYYCQHHHDTPLTFGAGTKLDLK
notes: as for B1
B6: 103E2E9C2 (antibody, V domains shown)
VH: EVQLQQSGPVLVKPGASVKMSCEASGYSFIDYYMSWVKQSRGRSLEWIGVFNPYSGEIIYNQKFKGKATLTVDKSSSTAYMELSSLTSEDSGVYSCARLRISYYAIDYWGQGTSVAVSS
VL: ENVLTQSPAIMSASPGEKVTMTCRATSSVSSGHFHWYQQKSGASPKVWIYSTSNLASGVPARFSGSGSGTSFSLTISSVEAEDVATYFCQQYSGYPLTFGGGTKLEIK
notes: as for B1
B7: 5G4H10G5 (antibody, V domains shown)
VH: EVQLVESGGDLVQPGGSLKLFCAASGFTFSTYGLSWVRQTPDKRLELVATITNNDGSAYYPDSVKGRFTISRDKAKNTLFLQMTSLKSEDTAMYYCARETGFGSSYLFDYWGQGTLVTVSA
VL: NIVMTQTPKFLLVSAGDRVTITCKASQSVSNDVAWYQQKPGQSPKLLIYFATNRYTGVPNRFTGSGYGTEFTFTISSVQAEDLAVYFCQQDYSSPTFGGGTKLEIK
notes: as for B1
B8: 39A11G5F2 (antibody, V domains shown)
VH: QVQLQQSGAELMKPGASMRLSCKATGYTFTGYWLEWIKRRPGHGLEWIGEILPGRGSTNYNEKFKGKATFTAETSSNTAYMQLTSLTTEDSAIYYCARGGRDFDNWGQGTTLTVSS
VL: DIQMTQSTSSLSASLGDRVTISCSASQGINNHLNWYQQKPDGTVKLLIYYTSSLHSGVPSRFSGSGSGTDYSLTISNLEPEDIAIYYCQQFSKLPYTFGGGTKVEMK
notes: as for B1
B9: 52C9E9F6 (antibody, V domains shown)
VH: QVQLQQSGAELMKPGASVKLSCKATGYTFTGYWIEWIKQRPGHGLEWIGEILPGRGSTDYNEKFKGKATFTADTSSNTAYMQLSSLTTEDSAIYYCTRGRLDFTYWGQGTLVTVSA
VL: B8 VL with S7T, N30R, H32Y, I85T, F91Y, L94V, Y96W, V104L, M106I
notes: as for B1
B10: 36A10D8B12 (antibody, V domains shown)
VH: DVQLQESGPGMVKPSQSLSLTCTVTGYSITSGYDWHWIRHFPGNKLEWMGYISYSGNTNYNPSLKSRISITHNTSKNHFFLRLNSVTTEDTATYYCARGYGNWDAMDYWGQGTSVTVSS
VL: DIVMTQSQKFMSTSVGDRVSVTCKASQIVDTNVAWYQQKPGQSPKALISSASYRYSGVPDRFTGSGSGTDFTLTISNVQSEDLAEYFCQQYNSYPLTFGAGTKLELT
notes: as for B1

Each binder was assayed against T1, mouse TPBG (full length, on cells) (assay: FACS on CHO-K1-mTPBG cells).
Text: The stable cell lines CHO-k1-hTPBG, CHO-k1-cTPBG, CHO-k1-mTPBG (i.e. the CHO-k1-hTPBG 3A2F1, CHO-k1-cTPBG 3F13G4 and CHO-k1-mTPBG 3A3 shown in table 7) and CHO-K1 cells were expanded to a 90% of confluency in T-75 cell culture flasks, the culture medium were removed, and cells were then rinsed twice with HBSS buffer (Hanks Balanced Salt Solution, purchased from Invitrogen) and lysed with enzyme-free cell dissociation buffer (Versene solution purchased from Life technology) and harvested. Harvested cells were rinsed with HBSS buffer twice and counted before diluting with HBSS buffer to 2×10⁶ cells /mL, and 10% goat serum blocking buffer was then added, wherein the percentage is the mass percentage. Cells were incubated on ice for 30 min, and then washed twice with HBSS buffer by centrifugation. The harvested cells were resuspended with FACS buffer (HBSS+1% BSA, wherein the percentage is mass percentage) to a concentration of 2×10⁶ cells /mL. 100 μL per well of the cells was aliquoted to 96-well FACS reaction plates, and 100 μL per well of test sample—the purified TPBG antibody obtaining from Embodiment 2 was added before incubating on ice for 2 h. The plate was washed with the FACS buffer twice by centrifugation, and 100 μL per well of fluorescence (Alexa 488) labeled secondary antibody (purchased from Invitrogen) was then added and incubated on ice for 1 h. The plate was washed with the FACS buffer for three times by centrifugation, follow by resuspending in 100 μL of fixation buffer (4% (v/v) paraformaldehyde). Cells were washed with FACS buffer twice after 10 min, follow by resuspending with 100 μL of FACS buffer. The results were measured and analyzed by FACS (FACS Calibur, purchased from BD). Data analysis was performed by software (CellQuest) to obtain mean fluorescence intensity (MFI) of the cells, follow by calculating EC50 value by software (GraphPad Prism) analysis and data fitting. The analysis results were shown in Table 8 and FIGS. 7-10, and data in FIGS. 7-10 show the mean fluorescence intensity (MFI) of cells.

**Q.** Does B1 bind?
**A.** no binding

**Q.** Does B2 bind?
**A.** no binding

**Q.** Does B3 bind?
**A.** no binding

**Q.** Does B4 bind?
**A.** no binding

**Q.** Which EC50 does the source give for B5 here?
**A.** 11.1 nM

**Q.** Does B6 bind?
**A.** no binding

**Q.** B7 was tested. Which EC50 did it give?
**A.** 9.07 nM

**Q.** With B8 as the binder, how does the EC50 read?
**A.** 1.88 nM

**Q.** Does B9 bind?
**A.** no binding

**Q.** Does B10 bind?
**A.** no binding

Each binder was assayed against T2, human TPBG-hFc (assay: ELISA, coated human TPBG-hFc 1.0 ug/mL; antibody 20 nM).
Procedure: The purified immunogen A (as for its method of preparation please refer to step 1 in Example 1) diluting with PBS to a final concentration of 1.0 μg/mL was aliquoted into a 96-well ELISA plate at 100 μL per well, and sealed with a parafilm and incubated at 4° C. overnight. The plate was washed twice with plate washing buffer (PBS containing 0.01% (v/v) Tween 20), and blocked with blocking buffer (PBS containing 0.01% (v/v) Tween 20 and 1% (w/w) BSA) at room temperature for 2 h. The blocking buffer was discarded, and 100 μL per well of the purified antibody obtained from Embodiment 2 was added. After incubating at 37° C. for 2 h, the plate was washed for three times with plate washing buffer (PBS containing 0.01% (v/v) Tween 20). HRP (horseradish peroxidase)-labeled secondary antibody (purchased from Sigma) was added and incubated at 37° C. for 2 h, and the plate was washed for three times using plate washing buffer (PBS containing 0.01% (v/v) Tween 20). 100 μL of TMB substrate was aliquoted into each well, incubated at room temperature for 30 min, and 100 μL of stop buffer (1.0N HCl) per well was subsequently added. A₄₅₀ₙₘ values were read using the ELISA plate reader (SpectraMax 384plus purchased from Molecular Device), and the results were shown in FIG. 6 and table 6. […] In Table 6 the IgG control herein is a mice IgG control, the data in the Table are OD₄₅₀ₘₙ values, and Blank means the OD₄₅₀ₘₙ value when there is only PBS buffer in the plate.

**Q.** With B1 as the binder, how does the OD450nm read?
**A.** 2.59 OD450nm

**Q.** With B2 as the binder, how does the OD450nm read?
**A.** 2.88 OD450nm

**Q.** How did the OD450nm turn out when B3 was run?
**A.** 2.82 OD450nm

**Q.** B4 was tested. Which OD450nm did it give?
**A.** 2.83 OD450nm

**Q.** Which OD450nm does the source give for B5 here?
**A.** 2.63 OD450nm

**Q.** How did the OD450nm turn out when B6 was run?
**A.** 2.62 OD450nm

**Q.** B7 was tested. Which OD450nm did it give?
**A.** 2.8 OD450nm

**Q.** Which OD450nm does the source give for B8 here?
**A.** 2.5 OD450nm

**Q.** With B9 as the binder, how does the OD450nm read?
**A.** 2.69 OD450nm

**Q.** How did the OD450nm turn out when B10 was run?
**A.** 3.07 OD450nm
